Data on 1 molecule can be found in publication PMC6821171, “LYAR potentiates rRNA synthesis by recruiting BRD2/4 and the MYST-type acetyltransferase KAT7 to rDNA” (Nucleic Acids Research, 2019).

For this test, the target named is T1, peptide LYAR_(175-219) (human, UniProt Q9NX58 175-219).
T1 construct: LYAR, human, residues 175-219
In words: ITC; peptide BRD2 489-540 with peptide LYAR 175-219 (Supplementary Figure S5E). The settings on record: both partners purified. For orientation: Isothermal titration calorimetry measures the heat released or taken up as one component is titrated into another.

B1: peptide BRD2_(489-540) (peptide, UniProt P25440 489-540, looked up)
peptide: SSSEEEEEEDEEDEEEEESESSDSEEERAHRLAELQEQLRAVHEQLAALSQG
notes: Bromodomain-containing protein 2, human, residues 489-540
For B1, the “stoichiometry N” value turned out to be 1.

As a reminder, the stoichiometry N is the number of molecules, sites or subunits per partner or assembly.
